# Results taken from patent US20240336664A1, “SULFATED POLYPEPTIDES FOR SYSTEMIC DELIVERY” (priority 2021, published 2024).
# B1: SEQ ID NO: 3: promoter nucleic acid sequence driving a luciferase expression construct in muscle cells (nucleic acid)
# DNA: CAGGCCCTGTAACTTTTCCAATAAAATATTCTATTAGAAACAAGTTCCTTCTAGATCTTCCTAAAAGAATACTAAAGGACCAAACCGTGCAACAGCACTGGTGGTATTGTCTTAATTTAGAGAGTCCATACCAGTGATTCTCAAACATTAGTATGCTCAGAGTTTCTGGTTCAATAGGTCTGGGCCGGGCCCAGGGAATTTTCATTTCTAAGAAGTTCGCAGGTGATACTGATAACTGCTGTTCCCAGGGTCTACATTTTGAGATCCGCTGCTATGTCACAAATCCAAATCCAAAGTCTTTTTAACAATCCCTTTTAGCCCAGGATGAGCCTAACGGCAATTTCACGTCCTTATCGCCGGCCACTTTAATCTTCAACTGAGGAGGAAGGGAGAGTGAGAATTATGTATATAATTTTTTTCTTTTATTTTTTAAAAAGAAAACTCCAAGCCCACACTCTTAATTATCTGGGATGAGGTCATTTGCACCTGGGTCATTTATTTAGACAACAAGTAGTCTTGCTAGAGGCTTTAAGGAGGTGTTAGCAGAGCGGTGTGTGGCTTCCAGGTTCCTGGGTCTACCTTAAATCCCCATCCTCTTTCTTTCTTTCTTTCTTTCTTTCTTTCTCTTTTCTTTTTCCTTTCCGTTTTGAAAGCCCCAACTGCCCAGTCTCTGGGTGTCCGGGTTCCCAGGTCCCTAGGTGGGGGCGGAGCCCGACACGGCCCCGCCCCGTCTGCCCGCAGCGCCCCCTCCCCGGCCCGCCCGCGCCGGCTCCTCCGCAGTGCTTTCAGCTGTGAGCTTGGGCGGCGGCGGCGGCGGCGCTCCACTTTCGGGGAGCCCGGCGGCTCTGGGAAGCTCACTCCTCCACTCGTACCCACACTCGACCGCGGAGCCCTTGCAGCCATGAGGGAACAGCTCAAAGGGTAAGTGGA
# System: C2C12 mouse myoblasts
# Experiment: Luciferase reporter expression from muscle promoters
# Format: cell-based
# Conditions: 48 hours post transfection, FIG. 6
# Excerpt: The present Example includes the recognition that certain promoters utilized herein have advantageous characteristics for expression of operably linked coding sequences in muscle cells, as exemplified in the present Example in C2C12 mouse myoblasts as a representative muscle cell type. In the present Example, a luciferase reporter construct was expressed in C2C12 mouse myoblasts using each of three promoters. Cells were mock transfected or transfected with vectors expressing luciferase using Lipofectamine LTS Plus reagent in a 96-well plate. 48 hours post transfection luciferase activity was measured using ONE-Glo™ Luciferase Assay System (E6110, Promega).
molecule,measurement,value
B1,luciferase expression vs promoters SEQ ID NO: 4 and SEQ ID NO: 5 and mock,substantially greater expression
